Bridge positions count the residues as written; N and C are the ends. Ends that are not written are not given here. I, II: the chains in the order shown.

The target of one assay is ADAM-17 (Homo sapiens, UniProt P78536). The experiment in a line: Inhibition of enzymes: ADAM-17 inhibition. The format is biochemical. The note with it: ADAM-17 at level of 400 ng/ml. The procedure: (§1) Inhibition of insulin degradation enzyme (IDE) is a biological function of CTF. The inhibition reduces insulin degradation in the liver and other tissues and thereby increases insulin levels in the blood. The enzymes for cleavage of the dimers are also potential therapeutic targets. Each of the peptides synthesized in Example 1 was tested for their effect on cleavage and target enzymes (ADAM-17 and IDE at level of 400 ng/ml).

Assay [1] concerns the target insulin degradation enzyme (IDE) (Homo sapiens, UniProt P14735). The experiment in a line: Inhibition of enzymes: insulin degradation enzyme (IDE) inhibition. It is filed as biochemical. Conditions: for IDE Inhibition (90% inhibition at): IDE at level of 400 ng/ml, peptide level giving 90% inhibition. How it is done:
as §1

The conditions of assay [2]: when administered to patients; cited from earlier work.

ADAM-17, sequence (P78536 215-824): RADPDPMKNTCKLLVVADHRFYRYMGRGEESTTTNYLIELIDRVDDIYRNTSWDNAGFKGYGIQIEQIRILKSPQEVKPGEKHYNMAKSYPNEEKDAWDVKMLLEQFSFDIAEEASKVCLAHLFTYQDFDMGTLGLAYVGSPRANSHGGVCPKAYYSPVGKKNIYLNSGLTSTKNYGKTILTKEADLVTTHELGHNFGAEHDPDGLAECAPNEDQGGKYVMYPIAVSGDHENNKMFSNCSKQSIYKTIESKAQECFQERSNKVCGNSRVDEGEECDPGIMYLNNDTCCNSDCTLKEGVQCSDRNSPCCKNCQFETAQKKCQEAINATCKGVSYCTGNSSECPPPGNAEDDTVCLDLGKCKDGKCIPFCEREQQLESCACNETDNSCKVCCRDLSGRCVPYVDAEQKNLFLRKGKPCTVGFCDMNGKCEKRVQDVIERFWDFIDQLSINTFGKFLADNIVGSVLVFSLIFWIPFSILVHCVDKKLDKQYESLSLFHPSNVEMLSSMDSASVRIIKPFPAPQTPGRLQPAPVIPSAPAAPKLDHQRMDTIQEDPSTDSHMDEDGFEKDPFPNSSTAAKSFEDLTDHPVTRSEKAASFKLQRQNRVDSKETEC

For the molecule GGCSEEDAL [R2 CTF9], in the assay with ADAM-17, the “ADAM-17 Inhibition (observed)” value was “Negative”. In assay [1], the “IDE Inhibition (90% inhibition at)” value is recorded as “Negative”.

Turning to GGCTDDTLL [R1 CTF9], the “ADAM-17 Inhibition (observed)” value with ADAM-17 is recorded as “Negative”. In addition, the “IDE Inhibition (90% inhibition at)” value in assay [1] was “negative”.

As for HFHGVSNLQEFRFMIGGGCSEEDAL [R2 CTF25], the “ADAM-17 Inhibition (observed)” value with ADAM-17 was “Negative”.

On to HFYGVSNLQEFRYGLEGGCTDDTLL [R1 CTF25], for which, in the assay with ADAM-17, the “ADAM-17 Inhibition (observed)” value is on record as “Negative”.

For the molecule “HVLVVAAAFVHFYGVSNLQEFRYGLEGGCT [R1 CTF30]”, the “ADAM-17 Inhibition (observed)” value with ADAM-17 was “Negative”. Further, the “IDE Inhibition (90% inhibition at)” value in assay [1] is on record as “Negative”.

In the case of LQEFRYGLEGGCTDDTLL [R1 CTF17], the “ADAM-17 Inhibition (observed)” value in the assay with ADAM-17 is recorded as “Negative”. Also, the “IDE Inhibition (90% inhibition at)” value in assay [1] is “negative”.

With “R1 CTF25 R2 CTF25: SEQ ID NO:5 linked via a disulfide bond to SEQ ID NO:6 (chain 1 HFYGVSNLQEFRYGLEGGCTDDTLL; chain 2 HFHGVSNLQEFRFMIGGGCSEEDAL; disulfide I:19-II:19 (inferred))”, the “ADAM-17 Inhibition (observed)” value with ADAM-17 is on record as “Negative”.

“VVAAAFVHFYGVSNLQEFRYGLEGGCTDDTLL [R1 CTF32, C-terminal fragment of ADIPOR1, 32 amino acids]”: the “ADAM-17 Inhibition (observed)” value with ADAM-17 is “Positive”. In addition, the insulin-sensitizing effect entry in assay [2] is “acted as an insulin-sensitizing agent”.

As to “VVAGAFVHFHGVSNLQEFRFMIGGGCSEEDAL [R2 CTF32, C-terminal fragment of ADIPOR2, 32 amino acids]”, in the assay with ADAM-17, the “ADAM-17 Inhibition (observed)” value is on record as “Positive”.

B1: R1 CTF32 R2 CTF32: SEQ ID NO:1 linked via a disulfide bond to SEQ ID NO:2 (peptide)
chain 1: VVAAAFVHFYGVSNLQEFRYGLEGGCTDDTLL
chain 2: VVAGAFVHFHGVSNLQEFRFMIGGGCSEEDAL
modifications: disulfide I:26-II:26 (inferred)
Take B1: the “ADAM-17 Inhibition (observed)” value in the assay with ADAM-17 is “Positive”. The “activity of heterodimer compared with corresponding homodimers” value in assay [1] (comparison drawn from the data in TABLE 2) is “more active than the corresponding homodimers”.

B2: R2 CTF32 R2 CTF32: SEQ ID NO:2 linked via a disulfide bond to SEQ ID NO:2 (peptide)
chain 1: VVAGAFVHFHGVSNLQEFRFMIGGGCSEEDAL
chain 2: VVAGAFVHFHGVSNLQEFRFMIGGGCSEEDAL
modifications: disulfide I:26-II:26 (inferred)
B2: the “ADAM-17 Inhibition (observed)” value with ADAM-17 is “Positive”.

B3: R1 CTF32 R1 CTF32: SEQ ID NO:1 linked via a disulfide bond to SEQ ID NO:1 (peptide)
chain 1: VVAAAFVHFYGVSNLQEFRYGLEGGCTDDTLL
chain 2: VVAAAFVHFYGVSNLQEFRYGLEGGCTDDTLL
modifications: disulfide I:26-II:26 (inferred)
Take B3: in the assay with ADAM-17, the “ADAM-17 Inhibition (observed)” value is “Positive”.
